Consider two molecules from US8980255B2, “Treatment of autoimmune disease by modulating annexin-1 (lipocortin 1)” (Queen Mary & Westfield College, priority 2008, dated 2015).

Where no end group is shown, it is not given here.

Assay [1] concerns murine naïve lymph node T cells. Description: T cell proliferation (3H-thymidine incorporation), anti-CD3/CD28 stimulation. The class given is cell-based. As to the method:
Primary murine T cells were prepared from lymph nodes by negative selection. Briefly, axillary, inguinal, and mesenteric lymph nodes were teased apart to make a single cell suspension, then washed and layered over Ficoll. The buffy coat was washed 2 times and then incubated with the antibody mix and the magnetic beads following the manufacturer's instructions (mouse T-cell negative isolation kit; Dynal, Bromborough, United Kingdom). In some experiments, cells were further purified to obtain naive CD62L^+ CD4^+ T cells by using the Miltenyi Biotec CD62L^+ CD4^+ T-cell isolation kit. Th0 conditions were created by T cells for 4 days in 6-well plates precoated with anti-CD3 (5 μg/mL) and anti-CD28 (5 μg/mL) in complete RPMI medium (10% fetal calf serum [FCS], 2 mM L-glutamine, and 100 units mL^−1 gentamycin) containing murine IL-2 (20 U/mL). […]
Purified lymph node T cells (10^5 cells/mL) were incubated with medium alone or with different concentrations of hrAnx-A1 for 2 hours at 37° C. in Eppendorf tubes. […] After 18 hours, cultures were pulsed for 8 hours with 1 μCi (3.7×10^4 Bg) [^3H]-thymidine (Amersham Pharmacia Biotech, Piscataway, N.J.) and incorporated radioactivity was measured by automated scintillation counter (Packard Instruments, Pangbourne, United Kingdom). […]
(In general: Incorporation of labelled thymidine or its analogues reports DNA synthesis.)

Assay [2] shares this test system. The assay is described as follows: IL-2 production from anti-CD3/CD28 stimulated T cells. The format is cell-based. How it is done:
The effects of an N-terminal peptide of hrAnx-A1 (peptide Ac 2-26) and of full length hrAnx-A1 on T cell activation were investigated. IL-2 production from murine naïve lymph node T cells was stimulated with 0.6, 1.25 or 2.5 μg/ml of anti-CD3/CD28 in the presence or absence of full length hrAnx-A1 (300 nM) or the Anx-A1 derived N-terminal peptide Ac.2-26 (100 μM) for 24 hrs.

For assay [3] the test system is unchanged. The assay is described as follows: CD25 and CD69 cell surface expression by FACS. The format is cell-based. Conditions: hrAnx-A1 150, 300, 600 nM; anti-CD3/CD28 1.25-5.0 μg/ml, 12 hrs; FIGS. 3C, 3D. As to the method:
Purified lymph node T cells were pretreated with human recombinant Anx-A1 for 2 hours at 37° C. in Eppendorf tubes and then stimulated with plate-bound anti-CD3 and anti-CD28 as indicated in the figures. After 16 hours, the cells were stained with PE-conjugated anti-CD69 (clone H1.2F3) and FITC-conjugated anti-CD25 (clone PC61.5) diluted in FACS buffer (PBS containing 1% FCS and 0.02% […]). Intact cells were gated by using forward and side scatter and were analyzed with the CellQuest program (Becton Dickinson, Franklin Lakes, N.J.) on a FACScan flow cytometer. […]
Murine naïve lymph node T cells were stimulated with anti-CD3/CD28 at a concentration of 1.25 μg/ml (left column), 2.5 μg/ml (middle column) and 5.0 μg/ml (right column), in the absence of (upper panels) or in the presence of (lower panels) hrAnx-A1 (600 nM) for 12 hrs and then analyzed for CD25 and CD69 expression by FACS.
In FIG. 3D, murine naïve lymph node T cells were stimulated with the indicated concentration of anti-CD3/CD28 in the presence of 150 (X), 300 ( ? ) and 600 (◯) nM of hrAnx-A1 for 12 hours and then analysed for CD25 (left graph) and CD69 (right graph) expression by FACS.

Assay [4] concerns Activator Protein-1 (AP-1). Description: Electrophoretic Mobility Shift Assay for AP-1 activation in T cells. The class given is cell-based. Conditions: T cells stimulated with anti-CD3/CD28 1.25 μg/ml in presence of hrAnx-A1; FIG. 5A. How it is done:
(§1) Nuclear extracts were harvested from 3×10^6 to 5×10^6 cells according to previously described protocols. Nuclear extracts (3 μg to 5 μg) were incubated with 1 μg (for NFAT) or 2 μg (for NF-κB and AP-1) of poly (dI:dC) in 20 μL binding buffer with ^32P end-labeled, double-stranded oligonucleotide probes (5×10^5 cpm), and fractionated on a 6% polyacrylamide gel (29:1 cross-linking ratio) in 0.5% TBE for 2.5 hours at 150 V. The NF-κB and AP-1 binding buffer (10×) contained 100 mM Tris-HCl, (pH 7.5), 500 mM NaCl, 10 mM EDTA, 50% glycerol, 10 mg/mL albumin, 30 mM GTP, 10 mM DTT. The NFAT binding buffer (10×) contained 100 mM Hepes (pH 7.9), 500 mM KCl, 1 mM EDTA, 1 mM EGTA, 50% glycerol, 5 mg/mL albumin, 1% Nonidet P-40, 10 mM DTT. The NF-κB and AP-1 double-stranded oligonucleotide probes were from Promega and the NFAT was from Santa Cruz Biotechnology (Santa Cruz, Calif.).
(§2) Investigations were carried out into how exogenous and endogenous Anx-A1 modulates T cell activation. The three major transcriptional activators of T cells, namely Activator Protein-1 (AP-1), Nuclear Factor-κB (NF-κB) and Nuclear Factor of Activated T cells (NFAT) were analysed in cells stimulated in presence of hrAnx-A1. […]
For orientation: A gel shift assay detects complexes by their altered migration in electrophoresis.

Assay [5] deals with Nuclear Factor-κB (NF-κB). Description: Electrophoretic Mobility Shift Assay for NF-κB activation in T cells. The class given is cell-based. Conditions: T cells stimulated with anti-CD3/CD28 1.25 μg/ml in presence of hrAnx-A1; FIG. 5A. How it is done: as §1, §2
Assay [6] has as its system Nuclear Factor of Activated T cells (NFAT). The assay is described as follows: Electrophoretic Mobility Shift Assay for NFAT activation in T cells. The class given is cell-based. Conditions: T cells stimulated with anti-CD3/CD28 1.25 μg/ml in presence of hrAnx-A1; FIG. 5A. How it is done: as §1, §2
For the next assay, the system named is naïve lymph node T cells. Description: Th1/Th2 differentiation in vitro, cytokine production on anti-CD3 restimulation. The class given is cell-based, mice. Conditions: Th1 or Th2 conditions, hrAnx-A1 600 nM, anti-CD3 5.0 μg/ml re-stimulation 8 h; FIG. 7A. How it is done:
Primary murine T cells were prepared from lymph nodes by negative selection. Briefly, axillary, inguinal, and mesenteric lymph nodes were teased apart to make a single cell suspension, then washed and layered over Ficoll. The buffy coat was washed 2 times and then incubated with the antibody mix and the magnetic beads following the manufacturer's instructions (mouse T-cell negative isolation kit; Dynal, Bromborough, United Kingdom). In some experiments, cells were further purified to obtain naive CD62L^+ CD4^+ T cells by using the Miltenyi Biotec CD62L^+ CD4^+ T-cell isolation kit. Th0 conditions were created by T cells for 4 days in 6-well plates precoated with anti-CD3 (5 μg/mL) and anti-CD28 (5 μg/mL) in complete RPMI medium (10% fetal calf serum [FCS], 2 mM L-glutamine, and 100 units mL^−1 gentamycin) containing murine IL-2 (20 U/mL). Th1 conditions were created with murine IL-12 (3.4 ng/mL; eBioscience), IL-2 (20 U/mL; eBioscience), and anti-IL4 (clone 11B11; 2 μg/mL). Th2 conditions were created with IL-4 (3000 U/mL; Peprotech, Rocky Hill, N.J.), IL-2 (20 U/mL), and anti-IFN-γ (clone XMG1.2; 2 μg/mL). Jurkat cells were obtained from ATCC (Manassas, Va.) and were cultured in complete RPMI medium.
For Th1/Th2 cytokine production analysis, Th0/Th1/Th2 cells (10^6/mL) obtained after 4-day differentiation in skewing conditions and 1 day of resting in complete RPMI medium, were stimulated with plate-bound anti-CD3 (5 μg/mL) for 8 h in 24-well plates. Culture supernatants were collected and analyzed for IFN-γ, IL-2, IL-4 and IL-10 content by using Th1/Th2 panel ELISA kit (eBioscience). The IL-13 ELISA kit was also purchased from eBioscience.
Naïve lymph node T cells were differentiated in vitro in Th1 (black bars) or Th2 (white bars) conditions in presence or absence of hrAnx-A1 (600 nM) and then restimulated with plate-bound anti-CD3 (5.0 μg/ml) for 8 h to measure Th1 or Th2 cytokine production. Values are mean±S.E. of n=4-5 mice. **P<0.01

The next assay concerns DBA mice. Description: collagen-induced arthritis (CIA) model. The format is in vivo. Conditions: 1 μg s.c. twice a day for 12 days after immunization with collagen, compared to PBS vehicle; FIGS. 8A, 8B. How it is done: Mice were injected with hrAnx-A1 daily for 12 days after immunization with collagen (time during which naïve cells differentiate in Th effector cells) and thereafter the progression of the disease upon antigen challenge was analyzed. […] Synchronization of disease onset was obtained by boosting with collagen on day 21, and clinical signs were evident from day 22 (day 1 of the onset of the diseases). Values are mean±S.E. of n=6-8 mice. Groups were compared using the Maim-Whitney test. *P<0.01

For the molecule “CH3CO-AMVSEFLKQA WFIENEEQEYVQTVK (Ac-AMVSEFLKQAWFIENEEQEYVQTVK; listed as Homo sapiens) [Ac.2-26, reference compound]”, the T cell proliferation entry in assay [1] (Ac.2-26, data not shown) is on record as “increased”. Besides, the IL-2 production entry in assay [2] (Ac.2-26 100 μM, anti-CD3/CD28 0.6, 1.25 or 2.5 μg/ml, 24 hrs, FIG. 9) was “increased”.

B1: hrAnx-A1: Endotoxin-free human recombinant Anx-A1 (Annexin-1, 37-kDa protein) (protein, UniProt P04083 1-346, looked up)
chain: MAMVSEFLKQAWFIENEEQEYVQTVKSSKGGPGSAVSPYPTFNPSSDVAALHKAIMVKGVDEATIIDILTKRNNAQRQQIKAAYLQETGKPLDETLKKALTGHLEEVVLALLKTPAQFDADELRAAMKGLGTDEDTLIEILASRTNKEIRDINRVYREELKRDLAKDITSDTSGDFRNALLSLAKGDRSEDFGVNEDLADSDARALYEAGERRKGTDVNVFNTILTTRSYPQLRRVFQKYTKYSKHDMNKVLDLELKGDIEKCLTAIVKCATSKPAFFAEKLHQAMKGVGTRHKALIRIMVSRSEIDMNDIKAFYQKMYGISLCQAILDETKGDYEKILVALCGGN
modifications: full-length
B1: the cell proliferation result in assay [1] (pre-treatment with hrAnx-A1, anti-CD3/CD28 5.0, 2.5 and 1.25 μg/ml, 24 hrs, FIG. 3A) is listed as “augmented”. Also, in assay [2] (anti-CD3/CD28 1.25 μg/ml, different concentrations of hrAnx-A1, 24 hrs, FIG. 3B), the IL-2 production entry was “augmented”. Besides, in assay [3], the “cell surface expression of CD25” value is listed as “augmented” and the “cell surface expression of CD69” value is reported as “augmented”. In addition, the “activation of AP-1” value in assay [4] was “increased activation”. Further, the “activation of NF-κB” value in assay [5] is reported as “increased activation”. Moreover, the “activation of NFAT” value in assay [6] is “increased activation”. In the assay on naïve lymph node T cells, the IFNγ production entry is recorded as “increased”, the IL2 production result is “increased”, the IL4 release entry is “decrease” and the “IL 10 release” value is reported as “decrease”. For the same molecule, the “signs and symptoms of arthritis (paw volume, clinical score)” value with DBA mice was “exacerbated”.
